Assay results reported in patent publication EP2954933A1 (3B Pharmaceuticals GmbH, dated 2015).
*1 amine or outer side, *2 acyl side, *3 side chain or, on linkers, in order; H or OH if unused. [ ]: non-standard residue; d: D form. Lys(DOTA) = Lys with DOTA chelator on the side chain; Oic = O=C(O)[C@@H]1C[C@@H]2CCCC[C@@H]2N1; d2Nal = N[C@H](Cc1ccc2ccccc2c1)C(=O)O; Glutaryl = O=C(CCCC(=O)[*:2])[*:1]; αMeF = C[C@](N)(Cc1ccccc1)C(=O)O; Ttds = non-natural spacer; Orn = NCCC[C@H](N)C(=O)O; 1206 = not defined here; GABA = NCCCC(=O)O

B1: 1206-Glutar-Ttds-Lys(DOTA)-Ttds-GABA-Lys-Arg-Pro-Hyp-Gly-Cha-Ser-Pro-Leu-OH (peptide)
peptide: KRPXGXSPL
modifications: position 4 = Hyp (hydroxyproline); position 6 = Cha (cyclohexylalanine); N-terminus of Lys1 acylated with 1206-Glutar-Ttds-Lys(DOTA)-Ttds-GABA- (1206 = non-peptide NTR1 antagonist moiety; DOTA on the Lys side chain); free C-terminal …
B2: 1206-Glutar-Ttds-Lys(DOTA)-Ttds-GABA-Orn-Arg-Oic-Pro-Gly-Amf-Ser-nal-Ile-OH (peptide)
peptide: {1206-Glutaryl-Ttds-Lys(DOTA)-Ttds-GABA}-[Orn]R[Oic]PG[αMeF]S[d2Nal]I-OH
modifications: reading uncertain; also: printed as 1206-Glutar-Ttds-Lys(DOTA)-Ttds-GABA-Orn-Arg-Oic-Pro-Gly-Amf-Ser-nal-Ile-OH

Biological target: T1, bradykinin B1 receptor (human) (UniProt P46663)
T1 sequence (looked up): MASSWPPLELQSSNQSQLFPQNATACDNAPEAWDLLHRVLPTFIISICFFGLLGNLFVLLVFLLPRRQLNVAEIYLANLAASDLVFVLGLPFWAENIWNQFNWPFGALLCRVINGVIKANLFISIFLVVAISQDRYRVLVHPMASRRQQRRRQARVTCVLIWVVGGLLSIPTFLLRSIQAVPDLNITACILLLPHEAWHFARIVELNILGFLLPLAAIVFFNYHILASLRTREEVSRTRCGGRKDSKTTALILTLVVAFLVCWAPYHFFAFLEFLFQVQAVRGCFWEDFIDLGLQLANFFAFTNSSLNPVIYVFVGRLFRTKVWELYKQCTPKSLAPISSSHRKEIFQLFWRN
Experiment: radioligand displacement: 0.35 nM [3H]desArg10-KD on human B1R from CHO cells, compound at 100 nM

Row | Binder | Inhibition [at 100 nM, %] [%]
1 | B1 | 20
2 | B2 | 17
